The source of these data is patent US20250270318A1 (AB THERAPEUTICS, published 2025).

For orientation: EC50 means the concentration needed to bring the measured effect to its halfway point. High values mean a less potent agent, low ones a more potent agent. As usually defined, the IC50 is the concentration at which inhibition is half-maximal. Higher therefore signals lower potency.

Assay [1] has as its target T1, PD-L1 (endogenous, on RKO colon cancer cells) (human, UniProt Q9NZQ7 19-290).
T1 construct: whole, on cells; also called cell-associated PD-L1; CD274
Briefly: flow cytometry, antibody binding to PDL1+ RKO cells (MFI). As to the method: (§1) 10⁵ cells (RKO, Jurkat TIGIT, and Jurkat LAG-3 for testing antibody binding to PD-L1, TIGIT, and LAG-3, respectively) per well were distributed in 0.1 ml medium to 96-well V-bottom plates. Supernatants were discarded after spinning down cells at 300 g, 5 min at room temperature. Cells were resuspended in […] of a serial dilution of antibodies and incubated for 1 h at room temperature. After incubation, cells were washed by adding 0.15 ml cell staining buffer (PBS containing 1% FBS and 0.1% NaN3) and centrifugation at 300 g, 5 min at room temperature. Supernatants were discarded and cells were washed one more time with 0.15 ml of staining buffer. Cells were subsequently resuspended in […] of secondary antibody (Alexa Fluor 647-conjugated AffiniPure Goat Anti-Human IgG, Fcγ Fragment Specific. Used at 1:500) and incubated at RT for 30 min. Cells were spun down after 0.15 ml cell staining buffer was added, resuspended in 0.12 ml of cell staining buffer, and analyzed by flow cytometry on a NovoCyte flow cytometer (Agilent).

Assay [2] concerns the target T2, TIGIT (on TIGIT-transfected Jurkat cells) (UniProt Q495A1 22-244, limits assumed).
T2 construct: whole, on cells; also called Jurkat TIGIT; cell-associated TIGIT
T2 sequence (looked up): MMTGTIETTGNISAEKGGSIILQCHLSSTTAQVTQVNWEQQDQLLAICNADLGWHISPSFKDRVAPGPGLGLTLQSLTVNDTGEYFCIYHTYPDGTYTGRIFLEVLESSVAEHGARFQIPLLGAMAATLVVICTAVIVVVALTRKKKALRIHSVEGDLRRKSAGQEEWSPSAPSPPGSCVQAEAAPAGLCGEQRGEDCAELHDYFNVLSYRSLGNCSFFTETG
Briefly: flow cytometry, antibody binding to Jurkat TIGIT cells (MFI), fluorescent anti-human IgG Fc secondary. As to the method: as §1
In general terms: A flow cytometer gives signals particle by particle.

The target in assay [3] is T2, TIGIT (on TIGIT-transfected Jurkat …). Briefly: flow cytometry blocking assay: biotinylated CD155 binding to Jurkat TIGIT cells (MFI), streptavidin detection. As to the method:
(§2) 10⁵ cells (RKO for PD-1/PD-L1 blocking, Raji for MHC-II/LAG-3 blocking, and Jurkat TIGIT for CD155/TIGIT blocking) were distributed per well in 0.1 ml medium to 96-well V-bottom plate in duplicate. Supernatants were discarded after spinning down cells at 300 g, 5 min at room temperature. […] After incubation, cells were washed by adding 0.15 ml cell staining buffer (PBS containing 1% FBS and 0.1% NaN3) and centrifugation at 300 g, 5 min at room temperature. Supernatants were discarded and cells were washed one more time with 0.15 ml of staining buffer. Cells were subsequently resuspended in […] of 1:500 Streptavidin-PE and incubated at RT for 30 min. Cells were spun down after 0.15 ml cell staining buffer was added, resuspended in 0.12 ml of cell staining buffer, and analyzed by flow cytometry on a NovoCyte flow cytometer (Agilent).

Assay [4] has the same target. Briefly: competition flow cytometry: blocking of biotinylated CD155 binding to Jurkat TIGIT cells. As to the method:
as §2

In assay [5] the target is T3, LAG-3 (on LAG-3-transfected Jurkat cells) (UniProt P18627 23-525, limits assumed).
T3 construct: whole, on cells; also called Jurkat LAG-3; cell-associated LAG-3
T3 sequence (looked up): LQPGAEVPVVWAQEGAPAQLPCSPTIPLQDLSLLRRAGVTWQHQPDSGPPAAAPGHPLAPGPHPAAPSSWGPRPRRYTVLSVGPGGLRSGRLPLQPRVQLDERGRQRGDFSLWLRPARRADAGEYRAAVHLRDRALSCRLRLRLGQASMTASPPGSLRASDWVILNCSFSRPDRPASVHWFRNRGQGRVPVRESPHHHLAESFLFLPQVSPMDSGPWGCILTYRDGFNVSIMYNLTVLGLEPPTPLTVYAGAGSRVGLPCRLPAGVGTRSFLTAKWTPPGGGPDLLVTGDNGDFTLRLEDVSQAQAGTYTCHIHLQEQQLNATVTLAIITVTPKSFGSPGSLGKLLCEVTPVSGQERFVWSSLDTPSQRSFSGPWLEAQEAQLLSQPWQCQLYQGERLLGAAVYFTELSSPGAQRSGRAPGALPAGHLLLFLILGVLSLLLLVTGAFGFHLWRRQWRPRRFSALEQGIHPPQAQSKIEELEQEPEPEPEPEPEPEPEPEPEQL
Briefly: flow cytometry, antibody binding to Jurkat LAG-3 cells (MFI). As to the method: as §1

T1 sequence (Q9NZQ7 19-290): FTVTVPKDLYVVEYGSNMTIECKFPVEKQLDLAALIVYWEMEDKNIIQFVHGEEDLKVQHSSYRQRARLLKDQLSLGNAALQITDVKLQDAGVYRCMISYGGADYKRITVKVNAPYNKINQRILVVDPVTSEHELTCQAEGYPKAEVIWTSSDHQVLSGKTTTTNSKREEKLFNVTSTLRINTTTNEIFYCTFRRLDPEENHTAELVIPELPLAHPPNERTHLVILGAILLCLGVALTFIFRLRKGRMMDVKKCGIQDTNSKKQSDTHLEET

B1: parental anti-TIGIT antibody (antibody, human IgG1, V domains shown)
VH: EVQLVESGGGLVQPGGSLRLSCAASSRTFSRYAMGWFRRAPGKEREFVASISWSGGGLEYAESVKGRFTISRDGSKNTVYLQMNSLAAEDTAVYYCAADPWGSLVNGAVRYEYWGQGTLVTVSS
notes: also called αTIGIT; ABT's parental anti-TIGIT antibody
Consider B1, for which the binding result in assay [1] was “no binding (tested: 100 nM)”. The molecule also showed an EC50 in assay [2] of 5.64 nM. For the same molecule, the IC50 in assay [3] is 2.65 nM; in assay [4], approximately 2.5 nM.

B2: PD-L1/TIGIT BsAb (bispecific antibody, V domains shown)
V domain 1: EVQLVESGGGLVQPGGSLRLSCAASSRTFSRYAMGWFRRAPGKEREFVASISWSGGGLEYAESVKGRFTISRDGSKNTVYLQMNSLAAEDTAVYYCAADPWGSLVNGAVRYEYWGQGTLVTVSS
V domain 2: not shown
notes: also called PD-L1/TIGIT bispecific antibody; TIGIT/PD-L1 bispecific antibody; not shown: linker peptide
Take B2: in assay [2], the EC50 is 1.59 nM. Further, the IC50 is 0.37 nM in assay [3] and approximately 0.3 nM in assay [4]. For the same molecule, the binding result in assay [5] was “no binding (tested: 100 nM)”.

B3: tiragolumab (antibody, V domains shown)
VH: EVQLQQSGPGLVKPSQTLSLTCAISGDSVSSNSAAWNWIRQSPSRGLEWLGKTYYRFKWYSDYAVSVKGRITINPDTSKNQFSLQLNSVTPEDTAVFYCTRESTTYDLLAGPFDYWGQGTLVTVSS
VL: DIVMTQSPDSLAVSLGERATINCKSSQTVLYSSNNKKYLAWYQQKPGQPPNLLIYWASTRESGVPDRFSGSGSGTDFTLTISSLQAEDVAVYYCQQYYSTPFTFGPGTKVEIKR
In turn, B3 yielded an EC50 in assay [2] of 0.31 nM. The IC50 in assay [3] is 0.29 nM; in assay [4], approximately 0.3 nM.
